Drawing on paper PMC1887683, this text covers binding signal for one substance.

The target in the data set is STAT1 (activated; HepG2 nuclear extract, IL-6) (UniProt P42224). The experiment in a line: competition EMSA. To be noted: scale: fold competition efficiency vs c-myc E2F.
Sequence of STAT1 (activated; HepG2 nuclear extract, IL-6) (P42224 whole entry): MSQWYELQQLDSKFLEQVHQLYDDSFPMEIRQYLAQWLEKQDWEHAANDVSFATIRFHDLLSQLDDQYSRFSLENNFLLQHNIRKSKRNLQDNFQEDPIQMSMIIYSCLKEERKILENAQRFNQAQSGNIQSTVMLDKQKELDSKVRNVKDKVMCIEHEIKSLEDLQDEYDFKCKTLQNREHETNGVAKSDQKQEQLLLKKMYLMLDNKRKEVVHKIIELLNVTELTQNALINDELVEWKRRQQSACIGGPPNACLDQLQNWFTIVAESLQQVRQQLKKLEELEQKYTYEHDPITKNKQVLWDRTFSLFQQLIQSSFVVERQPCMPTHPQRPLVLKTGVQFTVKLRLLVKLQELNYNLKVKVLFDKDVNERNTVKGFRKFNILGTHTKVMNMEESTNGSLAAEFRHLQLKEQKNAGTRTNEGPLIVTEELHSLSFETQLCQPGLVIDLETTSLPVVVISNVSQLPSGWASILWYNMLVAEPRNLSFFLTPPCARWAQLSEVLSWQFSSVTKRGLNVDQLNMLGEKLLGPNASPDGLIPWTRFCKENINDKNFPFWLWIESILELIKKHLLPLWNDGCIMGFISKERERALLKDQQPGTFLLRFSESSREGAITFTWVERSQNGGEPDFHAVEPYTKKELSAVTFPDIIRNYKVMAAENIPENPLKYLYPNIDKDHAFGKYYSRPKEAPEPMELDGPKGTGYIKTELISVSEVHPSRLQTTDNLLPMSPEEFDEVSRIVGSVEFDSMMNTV

For APRE (alpha2-macroglobulin), the binding signal was 5.
